Test results published in patent EP4537907A1.

Target: recombinant human CD248 (internally produced) (human) (UniProt Q9HCU0)
Assay: competition ELISA: non-purified Fab E. coli supernatant mixed 1:1 with biotinylated human CD248, added to immobilised human IGFBP5, Streptavidin-HRP

Chain of recombinant human CD248 (internally produced) (human) (Q9HCU0 18-687 limits assumed): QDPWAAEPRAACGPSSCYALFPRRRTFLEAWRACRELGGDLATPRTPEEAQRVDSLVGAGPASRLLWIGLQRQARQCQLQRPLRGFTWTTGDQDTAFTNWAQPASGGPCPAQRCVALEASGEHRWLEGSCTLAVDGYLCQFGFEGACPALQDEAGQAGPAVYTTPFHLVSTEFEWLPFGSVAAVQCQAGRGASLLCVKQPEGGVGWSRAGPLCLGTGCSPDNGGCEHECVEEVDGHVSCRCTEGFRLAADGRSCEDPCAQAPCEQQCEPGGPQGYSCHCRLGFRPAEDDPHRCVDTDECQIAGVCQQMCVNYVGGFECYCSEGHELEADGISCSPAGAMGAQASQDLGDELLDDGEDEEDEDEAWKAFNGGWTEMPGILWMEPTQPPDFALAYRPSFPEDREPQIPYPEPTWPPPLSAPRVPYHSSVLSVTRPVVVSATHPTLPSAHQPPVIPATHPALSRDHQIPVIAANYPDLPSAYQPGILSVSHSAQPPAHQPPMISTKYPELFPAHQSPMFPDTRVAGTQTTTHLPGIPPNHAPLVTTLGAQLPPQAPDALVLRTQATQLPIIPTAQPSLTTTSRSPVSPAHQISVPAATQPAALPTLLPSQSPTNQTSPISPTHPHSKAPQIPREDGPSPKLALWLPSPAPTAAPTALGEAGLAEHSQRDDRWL

B1: YU1023-A02 Fab (Fab, V domains shown)
VH: QVQLVESGPGLVKPSQTLSLTCTVSGGSISSGGYYWSWIRQHPGKGLEWIGYIYYSGSTYYNPSLKSRVTISVDTSKNQFSLKLSSVTAADTAVYYCARVRGRSATYFDYWGQGTTVTVSS
VL: QSVLTQPPSVSGAPGQRVTISCTGSSSNIGAGYDVRWYQQLPGTAPKLLIYANNNRPSGVPDRFSGSKSGTSASLAITGLQTEDEADYYCQSYDISLSGSLFGGGTKLTVL
Binder B1 has a fold inhibition of CD248-IGFBP5 binding over the negative control antibody (Palivizumab) of over 10 fold.
